The target in experiment [1] is human NL1 cholinesterase domain lacking splice inserts (hNL1(–A–B)_(ECTO); Gln46-Asp635), crystallisation sample (human). The experiment in a line: crystal structure; Endo F1-treated hNL1(–A–B)_(ECTO)–cMDGA1_(ECTO) complex, mixed 1:1.25, 0.1M Na.HEPES pH 7.0, 7.5% PEG8000; 3.30 Å.
In experiment [2] the target is human NL1(–A–B)_(ECTO) (Gln46-Asp635), soluble protein for ITC and as SPR analyte (human). The experiment in a line: ITC; competition: β-NRX1_(LNS6)(–4) titrated into NL1_(ECTO) with an equimolar amount of MDGA1_(ECTO) in the cell; HBS-C, 295 K; apparent KD. In general terms: ITC needs no label: the signal is the heat of the interaction.
The target is the same in experiment [3]. The experiment in a line: ITC; β-NRX1_(LNS6)(–4) in the syringe titrated into NL1_(ECTO) alone in the cell; HBS-C (10 mM HEPES pH 7.50, 150 mM NaCl, 3 mM CaCl2), 295 K; one binding site model.
In experiment [4] the target is human NL1(–A+B)_(ECTO), immobilised for SPR (human). Kind of experiment: SPR; biotinylated NL_(ECTO)-Avitag variants captured from dialysed conditioned medium on streptavidin CM5 chip (500 RU; 550 RU for the ΔSite series; 1000 RU for NL3 and NL3 Arg451Cys in the R451C series); β-NRX1_(LNS6)(±4), MDGA1_(ECTO), MDGA2_(ECTO) injected, 15 concentrations, two-fold series from 50 μM; TBS-CTB (10 mM Tris pH 7.4, 150 mM NaCl, 3 mM CaCl2, 0.005% Tween-20, 1.0 g/L BSA); equilibrium analysis, 1:1 Langmuir model. In general terms: Surface plasmon resonance follows binding to a sensor surface in real time, without labels.

The target in experiment [5] is human NL1(–A–B)_(ECTO), biotinylated and immobilised for SPR (human). The description is as above.
Experiment [6] concerns the target human NL3(–A)_(ECTO) (Gln38-Asp636), immobilised for SPR (human) (UniProt Q9NZ94). Described as above.

A word on the stoichiometry N: it is the number of molecules, sites or subunits per partner or assembly. As usually defined, the Kd is the free concentration of one partner at which half of the binding sites on the other are occupied at equilibrium, for simple one-to-one binding. The low end stands for tighter binding, the high end for weaker binding.

Chain of human NL3(–A)_(ECTO) (Gln38-Asp636), immobilised for SPR (human) (Q9NZ94 other isoform, or with tags, fused parts or gaps): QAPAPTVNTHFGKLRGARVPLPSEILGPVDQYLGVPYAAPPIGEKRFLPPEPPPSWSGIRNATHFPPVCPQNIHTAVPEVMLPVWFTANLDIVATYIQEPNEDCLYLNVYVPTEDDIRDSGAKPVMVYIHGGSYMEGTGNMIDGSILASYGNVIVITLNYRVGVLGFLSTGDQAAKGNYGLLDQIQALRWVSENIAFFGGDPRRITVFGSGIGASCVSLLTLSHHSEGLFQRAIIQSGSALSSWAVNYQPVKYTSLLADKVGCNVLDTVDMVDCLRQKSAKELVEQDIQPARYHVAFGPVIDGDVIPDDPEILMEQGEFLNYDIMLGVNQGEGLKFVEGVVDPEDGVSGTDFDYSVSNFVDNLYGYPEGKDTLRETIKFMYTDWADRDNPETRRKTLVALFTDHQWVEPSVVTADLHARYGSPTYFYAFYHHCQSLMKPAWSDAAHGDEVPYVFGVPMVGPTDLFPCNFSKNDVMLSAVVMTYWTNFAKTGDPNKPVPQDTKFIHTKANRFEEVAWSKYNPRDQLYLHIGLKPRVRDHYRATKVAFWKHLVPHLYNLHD

The substance “human NL1 cholinesterase domain lacking splice inserts (hNL1(–A–B)_(ECTO); Gln46-Asp635), crystallisation sample (domain or fragment)” registered a stoichiometry N in experiment [1] of 2.

Regarding “human β-neurexin-1 LNS6 domain lacking SS4 (β-NRX1_(LNS6)(–4); His85-Val265) (domain or fragment)”, in experiment [2], the K (D,app) with an equimolar amount of MDGA1 (ECTO) stood at 4.76 µM. Moreover, the Kd in experiment [3] is 0.388 µM; in experiment [5], 0.718 µM; in experiment [6], 8.5 µM. Besides, the fold weaker than with NL1(–A–B) (ECTO) in experiment [4] is below 2 fold.

“human β-neurexin-1 LNS6 domain with SS4 (β-NRX1_(LNS6)(+4)) (domain or fragment)” gave a fold weaker than with NL1(–A–B) (ECTO) in experiment [4] below 2 fold.

(Values after publication PMC5563082.)
